Experiments:
[1] = test system: SAMS peptide (Abcam)
[2] = test system: T1, USP10 S76 peptide
T1 sequence: TLPRTPSYSISST

[3] = test system: Ubiquitinated AMPKα2
[4] = test system: Ubiquitinated AMPKα1

| Substance | initial rate of phosphorylation (in vitro kinase assay, 32P incorporation) [1] [pmol/min/reaction mix] | maximal stoichiometry of phosphorylation [1] [mol/mol] | initial rate of phosphorylation (in vitro kinase assay, 32P incorporation) [2] [pmol/min/reaction mix] | maximal stoichiometry of phosphorylation [2] [mol/mol] | in vitro deubiquitination assay, immunoblot (FIG. 3H) [3] | in vitro deubiquitination assay, immunoblot (FIG. 4C) [4] |
| --- | --- | --- | --- | --- | --- | --- |
| Purified AMPK (Upstate Biotechnology) | 95±18 | 0.35±0.02 | 155±36 | 0.46±0.04 |  |  |
| USP10CA (catalytically inactive CA mutant, recombinant) |  |  |  |  | the catalytically inactive CA mutant could not | the catalytically inactive CA mutant could not |

Reference: patent publication US20190030139
